Laboratory results reported in the supplement of paper PMC10126150.
± gives the standard deviation of the averaged measurements.

Tested on: ATP
Test: switch fluorescence ratio, 500 uM ATP over buffer (Cy3 cluster intensity, sum of 5 cycles each) (fold (ratio)); higher = stronger signal-on switching upon ATP binding; sequences stand for … in TCGTCGGCAGCGTCAGATGTGTATAAGAGACAGTTTTTTTTTTTTTTTTTTTTTTTTT…TC
Details: aptamer strand: ATP DNA aptamer (quencher-CACCTGGGGGAGTATTGCGGAGGAAGG + anchor), 100 nM annealed; ATP concentration: 500 uM
Procedure, shortened: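 Clusters with intensities outside 100-1000 RFU were excluded. The remaining Cy3-labelled switching-strand clusters on a modified Illumina MiSeq flow-cell had been annealed to 100 nM quencher-labelled ATP aptamer and imaged in selection buffer, then after 15 min with 500 uM ATP at 22 °C, for five cycles separated by NaOH stripping and re-annealing. The fluorescence ratio, averaged per switch-domain sequence, is each cluster's summed target-cycle Cy3 intensity over its summed buffer-cycle Cy3 intensity.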
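Note: ATP exposure 15 min at 22 °C before imaging.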

GGGGATCGCG
switch fluorescence ratio: 0.986 ± 0.033

ATTGGGCGCG
switch fluorescence ratio: 0.995 ± 0.018

GGATTTGGCT
switch fluorescence ratio: 0.999 ± 0.029

AATTTTAATG
switch fluorescence ratio: 0.997 ± 0.022

TGTAGTTTGT
switch fluorescence ratio: 0.973 ± 0.034

CGTACACGTT
switch fluorescence ratio: 1.02 ± 0.051

ACCTGGTGTT
switch fluorescence ratio: 1.23 ± 0.39

CCGAACGTCG
switch fluorescence ratio: 1.88 ± 0.27

TTTGGTTGGG
switch fluorescence ratio: 1.03 ± 0.098

GATGATGGAG
switch fluorescence ratio: 1.02 ± 0.011

TTTTAAGTTG
switch fluorescence ratio: 1.01 ± 0.045

CATCCGTGGG
switch fluorescence ratio: 1.75 ± 0.085

TTTTGTGGTC
switch fluorescence ratio: 1.02 ± 0.017

CGTGCGCATA
switch fluorescence ratio: 3.77 ± 1.4

AAATTCGCGT
switch fluorescence ratio: 1.01 ± 0.015

CGATCAATAT
switch fluorescence ratio: 2.38 ± 0.035

TTATACGTTG
switch fluorescence ratio: 1.02 ± 0.019

TCGCTGCGGA
switch fluorescence ratio: 1.01 ± 0.018

GGCGGACGGA
switch fluorescence ratio: 1.07 ± 0.089

GCTTGAGGGA
switch fluorescence ratio: 0.984 ± 0.042

TGCTGTCTGT
switch fluorescence ratio: 0.9903 ± 0.0058

TCACGATTGG
switch fluorescence ratio: 1.02 ± 0.02

CTGTTCTGGC
switch fluorescence ratio: 0.962 ± 0.12

ATTTGGGACT
switch fluorescence ratio: 1.03 ± 0.036

GAATGGGAGT
switch fluorescence ratio: 0.9969 ± 0.0051

AGAAGTAATG
switch fluorescence ratio: 0.997 ± 0.011

TCCAGTCATT
switch fluorescence ratio: 0.998 ± 0.01

CGTGGTTAAG
switch fluorescence ratio: 1.01 ± 0.038

GCTGTCGCTT
switch fluorescence ratio: 1.03 ± 0.027

TACCTTGTCT
switch fluorescence ratio: 1.04 ± 0.042

TGTTTGCCAG
switch fluorescence ratio: 1 ± 0.05

CAATGGAGGC
switch fluorescence ratio: 0.976 ± 0.072

GGTTAAGTAG
switch fluorescence ratio: 1.004 ± 0.0075

AGACCATAGA
switch fluorescence ratio: 1.02 ± 0.024

TGTAACGGGG
switch fluorescence ratio: 1.03 ± 0.032

GGGAGCTTTT
switch fluorescence ratio: 0.999 ± 0.023

GTTATAGCGG
switch fluorescence ratio: 0.976 ± 0.018

ACCATCGGGA
switch fluorescence ratio: 1.01 ± 0.016

GGAATGTTTT
switch fluorescence ratio: 0.994 ± 0.023

ACGGGGATTG
switch fluorescence ratio: 1.02 ± 0.042

TTAGGAGATT
switch fluorescence ratio: 1.08 ± 0.14

CCATCGTACC
switch fluorescence ratio: 1.3 ± 0.018

AAAGTATCTT
switch fluorescence ratio: 1.02 ± 0.037

CCTTGGTATT
switch fluorescence ratio: 0.998 ± 0.026

TGCGAAATTT
switch fluorescence ratio: 0.965 ± 0.013

GTGGGGCAGT
switch fluorescence ratio: 0.996 ± 0.025

GAGGTCGCGC
switch fluorescence ratio: 1.01 ± 0.043

TAAACGTATT
switch fluorescence ratio: 1.14 ± 0.13

GGCTGTAGAC
switch fluorescence ratio: 1.006 ± 0.0059

GAAGGGGTTA
switch fluorescence ratio: 1.03 ± 0.087

TGACTGTGTG
switch fluorescence ratio: 0.984 ± 0.017

ATTCACATCG
switch fluorescence ratio: 1.01 ± 0.06

CCGTCAGAGT
switch fluorescence ratio: 1.09 ± 0.014

CGGTGATTGA
switch fluorescence ratio: 1.004 ± 0.0023

GACGACTGAG
switch fluorescence ratio: 0.999 ± 0.087

GGGTTGGACT
switch fluorescence ratio: 0.999 ± 0.012

AAGTTTTTTG
switch fluorescence ratio: 0.989 ± 0.013

AAGGGGTAGG
switch fluorescence ratio: 0.986 ± 0.036

GTACGAGGGG
switch fluorescence ratio: 0.992 ± 0.016

TTCCAAGGGT
switch fluorescence ratio: 1.76 ± 1.5

CCGTGCCGTT
switch fluorescence ratio: 0.948 ± 0.024

TCAATGAATA
switch fluorescence ratio: 0.986 ± 0.02

ATATCAGGGG
switch fluorescence ratio: 1.13 ± 0.017

GATATTGTAG
switch fluorescence ratio: 0.986 ± 0.026

GGGGTTGAGT
switch fluorescence ratio: 1.001 ± 0.005

AACTCGACCC
switch fluorescence ratio: 1.05 ± 0.05

GGGTAGTCAG
switch fluorescence ratio: 0.995 ± 0.017

GATAAAGACG
switch fluorescence ratio: 0.9893 ± 0.0059

CCTACTAGAT
switch fluorescence ratio: 1.142 ± 0.007

TGGTTAGCG
switch fluorescence ratio: 1.04 ± 0.024

AAAGGGTTGA
switch fluorescence ratio: 0.9559 ± 0.0011

TATACGGAAG
switch fluorescence ratio: 1.02 ± 0.046

GTGTGTTTGT
switch fluorescence ratio: 0.955 ± 0.038

GTCGGTTGGG
switch fluorescence ratio: 0.99 ± 0.026

TTTTGGTTCC
switch fluorescence ratio: 1.01 ± 0.016

TAGGGAGGTG
switch fluorescence ratio: 1.04 ± 0.053

AGACGTCCCA
switch fluorescence ratio: 1.02 ± 0.022

GTGGGGGGGC
switch fluorescence ratio: 0.989 ± 0.032

GGTTTTGGGC
switch fluorescence ratio: 1.02 ± 0.042

GGTGGGGGCG
switch fluorescence ratio: 1 ± 0.024

ATTAAAGGGT
switch fluorescence ratio: 1.005 ± 0.0084

AAGTTTTAGG
switch fluorescence ratio: 0.988 ± 0.027

CATGCTTGGC
switch fluorescence ratio: 1.01 ± 0.055

TGACATCTA
switch fluorescence ratio: 1.07 ± 0.057

GTATAATGAT
switch fluorescence ratio: 0.977 ± 0.03

GAGGGTATGG
switch fluorescence ratio: 1.014 ± 0.0075

GCGTTTATGT
switch fluorescence ratio: 0.953 ± 0.025

GGGAGGAGGG
switch fluorescence ratio: 0.976 ± 0.035

AAAGTCATGG
switch fluorescence ratio: 0.948 ± 0.013

TCGTAGAGGG
switch fluorescence ratio: 1.008 ± 0.0013

CAGTCGAGTT
switch fluorescence ratio: 1.003 ± 0.0076

GGCGACACGT
switch fluorescence ratio: 1.03 ± 0.023

TACATAAGTT
switch fluorescence ratio: 1.02 ± 0.0074

ATGATTAGGA
switch fluorescence ratio: 0.987 ± 0.037

GAAGTAGGCG
switch fluorescence ratio: 1.03 ± 0.028

AAAGTGGTGT
switch fluorescence ratio: 0.9845 ± 0.0018

TAGATCGGGG
switch fluorescence ratio: 1.008 ± 0.01

GCGCGTTTTT
switch fluorescence ratio: 1 ± 0.016

CATATTCGCT
switch fluorescence ratio: 1.01 ± 0.016

TAATAAAAGG
switch fluorescence ratio: 0.998 ± 0.041

ATATGTGGGT
switch fluorescence ratio: 0.989 ± 0.038

GGACTAGGAA
switch fluorescence ratio: 1.01 ± 0.026

TCCCCATGGT
switch fluorescence ratio: 2.07 ± 0.068

GACATTCACC
switch fluorescence ratio: 1.1 ± 0.016

GCAAAAGTTT
switch fluorescence ratio: 0.99 ± 0.012

CAGGGGGACG
switch fluorescence ratio: 0.923 ± 0.063

CAGAAGGGTT
switch fluorescence ratio: 0.997 ± 0.038

TACTTTAGAC
switch fluorescence ratio: 1.05 ± 0.011

TGCTTTACGC
switch fluorescence ratio: 1.03 ± 0.03

TAGTCGAGGG
switch fluorescence ratio: 0.971 ± 0.024

AGCGAGTGGC
switch fluorescence ratio: 0.991 ± 0.03

CGAGTTAATT
switch fluorescence ratio: 1.014 ± 0.0097

AAGACTTGGG
switch fluorescence ratio: 1.05 ± 0.029

TTAGAGTTTA
switch fluorescence ratio: 0.975 ± 0.014

TTTGCAGTTC
switch fluorescence ratio: 1.3 ± 0.32

AATTTTATCT
switch fluorescence ratio: 0.99 ± 0.014

TTGTCTATGA
switch fluorescence ratio: 0.986 ± 0.028

ATGTCAGGTG
switch fluorescence ratio: 4.1 ± 0.71

TATTTGTACG
switch fluorescence ratio: 1.018 ± 0.0046

GGAATTACTT
switch fluorescence ratio: 0.987 ± 0.031

AAGCTCCTCT
switch fluorescence ratio: 1.03 ± 0.032

ATGAAGGGAT
switch fluorescence ratio: 0.9969 ± 0.00076

TTAAATATGG
switch fluorescence ratio: 1.02 ± 0.033

TTAAGGCGCT
switch fluorescence ratio: 0.976 ± 0.019

TGCTAGAGCT
switch fluorescence ratio: 0.997 ± 0.011

TGTAAATAAG
switch fluorescence ratio: 0.991 ± 0.043

TGCCTTTGTA
switch fluorescence ratio: 0.963 ± 0.013

ACGGATATTA
switch fluorescence ratio: 1.01 ± 0.0031

ATTGTGACGA
switch fluorescence ratio: 1.03 ± 0.027

TTCGGTCACC
switch fluorescence ratio: 1.014 ± 0.0054

CGGTTGGGAG
switch fluorescence ratio: 1.019 ± 0.0064

TTTTTAATGA
switch fluorescence ratio: 1.02 ± 0.052

AACAAGGGGG
switch fluorescence ratio: 1.01 ± 0.013

TTTGACGCGT
switch fluorescence ratio: 1.02 ± 0.016

GACCTTTGTT
switch fluorescence ratio: 1.01 ± 0.022

TGGGGTCCGG
switch fluorescence ratio: 0.97 ± 0.079

TTGTTTTGAA
switch fluorescence ratio: 1.006 ± 0.0053

ACGGATTGTG
switch fluorescence ratio: 0.971 ± 0.0099

GGATTTGGTG
switch fluorescence ratio: 1 ± 0.012

CTAATTGTTT
switch fluorescence ratio: 0.973 ± 0.025

ACCGTAGCGG
switch fluorescence ratio: 1.12 ± 0.023

AGTTGCGTTA
switch fluorescence ratio: 0.963 ± 0.025

GCCGCCGTGT
switch fluorescence ratio: 0.983 ± 0.031

CGGGAGGTA
switch fluorescence ratio: 1.0174 ± 1.4e-06

AGGGACAAGG
switch fluorescence ratio: 1.014 ± 0.0095

TTCGGATAAT
switch fluorescence ratio: 0.98 ± 0.011

GCTAGAGAGG
switch fluorescence ratio: 1.04 ± 0.063

TTCGCTCGAG
switch fluorescence ratio: 1 ± 0.017

GAGTGGGAGG
switch fluorescence ratio: 1.02 ± 0.026

TCATAGGTGG
switch fluorescence ratio: 1 ± 0.034

TATTAGAATC
switch fluorescence ratio: 0.994 ± 0.026

GGGGTAGAAC
switch fluorescence ratio: 0.992 ± 0.028

TTCCATGTGT
switch fluorescence ratio: 1.06 ± 0.044
